# pIC50, pKd: −log10 of the molar value.
# Tests used:
# HLA-B*40:02 [1] = experiment: IEDB peptide-MHC binding, cellular MHC/competitive/fluorescence; ≥ and ≤ were set here for values at or beyond the usual limits of such assays; conditions: source organism: Homo sapiens
# HLA-A*68:02 [2] = experiment: IEDB peptide-MHC binding, purified MHC/competitive/radioactivity; filed as Kd, often an IC50 or EC50 that approximates it; ≥ and ≤ were set here for values at or beyond the usual limits of such assays; conditions: source organism: Hepatitis C virus (isolate 1)
# HLA-A*31:01 [3] = experiment: as above; conditions: source organism: Hepatitis C virus (isolate 1)
# HLA-A*11:01 [4] = experiment: as above; conditions: source organism: Hepatitis C virus (isolate 1)
# HLA-A*02:03 [5] = experiment: as above; conditions: source organism: Hepatitis C virus (isolate 1)
# HLA-B*07:02 = experiment: as above; conditions: source organism: Hepatitis C virus (isolate 1)
# HLA-A*01:01 [6] = experiment: as above; conditions: source organism: Hepatitis C virus (isolate 1)
# HLA-A*03:01 [7] = experiment: as above; conditions: source organism: Hepatitis C virus (isolate 1)
# HLA-B*35:01 = experiment: as above; conditions: source organism: Hepatitis C virus (isolate 1)
# HLA-B*18:01 = experiment: as above; conditions: source organism: Hepatitis C virus (isolate 1)
# HLA-B*40:02 [8] = experiment: as above; conditions: source organism: Hepatitis C virus (isolate 1)
# HLA-B*51:01 = experiment: as above; conditions: source organism: Hepatitis C virus (isolate 1)
# HLA-B*54:01 = experiment: as above; conditions: source organism: Hepatitis C virus (isolate 1)
# HLA-A*02:02 [9] = experiment: as above; conditions: source organism: Hepatitis C virus (isolate 1)
# HLA-B*08:01 = experiment: as above; conditions: source organism: Hepatitis C virus (isolate 1)
# HLA-A*02:06 [10] = experiment: as above; conditions: source organism: Hepatitis C virus (isolate 1)
# HLA-A*33:01 = experiment: as above; conditions: source organism: Hepatitis C virus (isolate 1)
# HLA-B*53:01 = experiment: as above; conditions: source organism: Hepatitis C virus (isolate 1)
# HLA-B*44:03 = experiment: as above; conditions: source organism: Hepatitis C virus (isolate 1)
# HLA-B*44:02 = experiment: as above; conditions: source organism: Hepatitis C virus (isolate 1)
# HLA-B*40:01 = experiment: as above; conditions: source organism: Hepatitis C virus (isolate 1)
# HLA-A*68:01 = experiment: as above; conditions: source organism: Hepatitis C virus (isolate 1)
# HLA-A*02:03 [11] = experiment: IEDB peptide-MHC binding, purified MHC/competitive/radioactivity; ≥ and ≤ were set here for values at or beyond the usual limits of such assays; conditions: source organism: Hepatitis C virus (isolate H77)
# HLA-A*02:02 [12] = experiment: as above; conditions: source organism: Hepatitis C virus (isolate H77)
# HLA-A*02:06 [13] = experiment: as above; conditions: source organism: Hepatitis C virus (isolate H77)
# HLA-A*24:02 = experiment: as above; conditions: source organism: Homo sapiens
# HLA-B*15:42 = experiment: IEDB peptide-MHC binding, purified MHC/competitive/fluorescence; filed as Kd, often an IC50 or EC50 that approximates it; ≥ and ≤ were set here for values at or beyond the usual limits of such assays; conditions: source organism: Yersinia pseudotuberculosis IP 31758
# HLA-C*04:01 = experiment: as above; conditions: source organism: Yersinia pseudotuberculosis IP 31758
# HLA-A*68:23 = experiment: as above; conditions: source organism: Yersinia pseudotuberculosis IP 31758
# HLA-A*01:01 [14] = experiment: as above
# HLA-A*03:01 [15] = experiment: as above
# HLA-B*83:01 = experiment: as above; conditions: source organism: Yersinia pseudotuberculosis IP 31758
# HLA-B*58:01 = experiment: as above; conditions: source organism: Yersinia pseudotuberculosis IP 31758
# HLA-B*45:06 = experiment: as above; conditions: source organism: Yersinia pseudotuberculosis IP 31758
# HLA-B*15:01 = experiment: as above; conditions: source organism: Yersinia pseudotuberculosis IP 31758
# HLA-A*26:03 = experiment: as above; conditions: source organism: Human immunodeficiency virus 1
# HLA-A*68:02 [16] = experiment: as above; conditions: source organism: Human immunodeficiency virus 1
# HLA-A*69:01 = experiment: as above; conditions: source organism: Human immunodeficiency virus 1
# HLA-A*31:01 [17] = experiment: as above; conditions: source organism: Human immunodeficiency virus 1
# HLA-A*11:01 [18] = experiment: as above; conditions: source organism: Human immunodeficiency virus 1
# HLA-A*02:03 [19] = experiment: as above; conditions: source organism: Human immunodeficiency virus 1
# HLA-A*02:01 = experiment: as above; conditions: source organism: Human immunodeficiency virus 1
# HLA-B*08:02 = experiment: as above; conditions: source organism: Human immunodeficiency virus 1
# HLA-B*15:17 = experiment: as above; conditions: source organism: Human immunodeficiency virus 1
# HLA-A*02:06 [20] = experiment: as above; conditions: source organism: Human immunodeficiency virus 1
# HLA-A*30:01 = experiment: as above; conditions: source organism: Human immunodeficiency virus 1
# HLA-A*26:02 = experiment: as above; conditions: source organism: Human immunodeficiency virus 1
# HLA-A*02:05 = experiment: IEDB peptide-MHC binding, purified MHC/competitive/radioactivity; filed as Kd, often an IC50 or EC50 that approximates it; ≥ and ≤ were set here for values at or beyond the usual limits of such assays; conditions: source organism: Hepatitis C virus (isolate Taiwan)
# HLA-A*02:07 = experiment: as above; conditions: source organism: Hepatitis C virus (isolate Taiwan)
# HLA-B*27:05 = experiment: IEDB peptide-MHC binding, purified MHC/competitive/radioactivity; ≥ and ≤ were set here for values at or beyond the usual limits of such assays; conditions: source organism: Human papillomavirus 16
# [21] = source organism: Yersinia pseudotuberculosis IP 31758
# [22] = source organism: Human immunodeficiency virus 1
sequence,measurement,setting,value
KEHSLQVSP,pIC50,HLA-B*40:02 [1],5.72
KLVALGINAV,pKd,HLA-A*68:02 [2],4.89
same,pKd,HLA-A*31:01 [3],4.87
same,pKd,HLA-A*11:01 [4],≤ 4.16
same,pKd,HLA-A*02:03 [5],7.95
same,pKd,HLA-B*07:02,5.66
same,pKd,HLA-A*01:01 [6],5.05
same,pKd,HLA-A*03:01 [7],4.78
same,pKd,HLA-B*35:01,≤ 4.16
same,pKd,HLA-B*18:01,≤ 4.15
same,pKd,HLA-B*40:02 [8],≤ 4.15
same,pKd,HLA-B*51:01,≤ 4.33
same,pKd,HLA-B*54:01,4.72
same,pKd,HLA-A*02:02 [9],7.08
same,pKd,HLA-B*08:01,≤ 4.15
same,pKd,HLA-A*02:06 [10],8.40
same,pKd,HLA-A*33:01,≤ 4.15
same,pKd,HLA-B*53:01,≤ 4.16
same,pKd,HLA-B*44:03,≤ 4.15
same,pKd,HLA-B*44:02,≤ 4.15
same,pKd,HLA-B*40:01,≤ 4.16
same,pKd,HLA-A*68:01,≤ 4.15
same,pIC50,HLA-A*02:03 [11],7.12
same,pIC50,HLA-A*02:02 [12],7.82
same,pIC50,HLA-A*02:06 [13],8.43
KYAGESFPGI,pIC50,HLA-A*24:02,6.08
RQIRMTSTI,pKd,HLA-B*15:42,≤ 5.30
same,pKd,HLA-C*04:01,≤ 5.30
same,pKd,HLA-A*68:23,6.37
same,pKd,HLA-A*01:01 [14]; [21],5.52
same,pKd,HLA-A*03:01 [15]; [21],≤ 4.70
same,pKd,HLA-B*83:01,≤ 5.30
same,pKd,HLA-B*58:01,6.21
same,pKd,HLA-B*45:06,≤ 5.30
same,pKd,HLA-B*15:01,6.79
VLYCVHQEI,pKd,HLA-A*26:03,≤ 4.70
same,pKd,HLA-A*68:02 [16],6.63
same,pKd,HLA-A*69:01,6.08
same,pKd,HLA-A*31:01 [17],≤ 4.70
same,pKd,HLA-A*11:01 [18],≤ 4.70
same,pKd,HLA-A*02:03 [19],8.06
same,pKd,HLA-A*01:01 [14]; [22],≤ 4.70
same,pKd,HLA-A*03:01 [15]; [22],≤ 4.70
same,pKd,HLA-A*02:01,8.15
same,pKd,HLA-B*08:02,≤ 4.70
same,pKd,HLA-B*15:17,6.46
same,pKd,HLA-A*02:06 [20],8.39
same,pKd,HLA-A*30:01,4.91
same,pKd,HLA-A*26:02,≤ 4.70
YLVAYQATV,pKd,HLA-A*02:05,8.07
same,pKd,HLA-A*02:07,5.64
YRHYCYSL,pIC50,HLA-B*27:05,7.92
